US9879060B2, “SV82 polypeptide, and cosmetic composition for reducing skin wrinkles and maintaining skin elasticity comprising SV82 polypeptide as active ingredient” (NEXGEN BIOTECHNOLOGIES, INC., priority 2015, dated 2018)

System: Human dermal fibroblast adult (HDFa) cells
Test: Cell proliferation of HDFa by crystal violet staining
Type: cell-based
Conditions: 0.02 or 0.2 ppm, 3 days at 37° C., compared to a control (FIG. 5)
Experimental: Human dermal fibroblast adult (HDFa) cells, which had been cultured to evaluate the activity of SV82 polypeptide that has been separated and purified in Example 2, were treated with SV82 polypeptide having a concentration of 0, 0.02 ppm or 0.2 ppm, and then incubated for 3 days at a temperature of 37° C. Thereafter, the cells were stained by crystal violate staining to identify whether the cells had proliferated.

B1: SV82 polypeptide (protein)
chain: MKYLLPTAAAGLLLLAAQPAMARATCAGQDQPCKETCDCCGERGECVCGGPCICRQGYFWIAWYKLANCKKLEHHHHHH
modifications: SV82
How did the “cell proliferation of HDFa (crystal violet staining)” value turn out when B1 was run?
The value was “the more HDFa cells proliferate”.
